For series [1], the system named is HeLa Kyoto. Briefly: solubility in G1/S (NP-40 vs SDS abundance) (log2 ratio); higher = more soluble. To be noted: cell cycle stage: G1/S.
Series [2] concerns HeLa Kyoto. Put plainly: melting temperature (median over replicates), in situ; higher = more thermally stable.
For series [3], the system named is HeLa Kyoto. Briefly: solubility change mitosis vs G1/S (difference of NP-40 vs SDS log2 ratios) (log2 ratio difference); higher = more soluble in mitosis.
In series [4] the test system is HeLa Kyoto. Briefly: thermal stability score vs G1/S (z-score of summed log2 fold changes over temperatures); higher = more thermally stable than in G1/S.
Where [5] appears, read: cell cycle stage: early G1 (4.5 h after nocodazole release).

The results in this text go back to the supplement of paper PMC5998384.
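Wherever melting temperature (median over replicates), in situ is given: HeLa Kyoto cells synchronized by double thymidine or nocodazole block, proteins quantified by TMT10plex mass spectrometry, three independent biological replicates.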
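Wherever solubility change mitosis vs G1/S (difference of NP-40 vs SDS log2 ratios) is given: synchronized HeLa Kyoto cells (double thymidine block for G1/S, nocodazole release for mitosis), protein amounts in NP-40 versus SDS lysates quantified by mass spectrometry, three biological replicates.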
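Wherever solubility in G1/S (NP-40 vs SDS abundance) is given: HeLa Kyoto cells arrested at G1/S by double thymidine block, proteins quantified by TMT10plex mass spectrometry in mild NP-40 versus SDS extracts, three biological replicates.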
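Wherever thermal stability score vs G1/S (z-score of summed log2 fold changes over temperatures) is given: synchronized HeLa Kyoto cells, proteins quantified by TMT10plex mass spectrometry, three biological replicates, mitosis taken 0.5 h after nocodazole release, G1/S directly after double thymidine block.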

Consider “MVQKESQATLEERESELSSNPAASAGASLEPPAAPAPGEDNPAGAGGAAVAGAAGGARRFLCGVVEGFYGRPWVMEQRKELFRRLQKWELNTYLYAPKDDYKHRMFWREMYSVEEAEQLMTLISAAREYEIEFIYAISPGLDITFSNPKEVSTLKRKLDQVSQFGCRSFALLFDDIDHNMCAADKEVFSSFAHAQVSITNEIYQYLGEPETFLFCPTEYCGTFCYPNVSQSPYLRTVGEKLLPGIEVLWTGPKVVSKEIPVESIEEVSKIIKRAPVIWDNIHANDYDQKRLFLGPYKGRSTELIPRLKGVLTNPNCEFEANYVAIHTLATWYKSNMNGVRKDVVMTDSEDSTVSIQIKLENEGSDEDIETDVLYSPQMALKLALTEWLQEFGVPHQYSSRQVAHSGAKASVVDGTPLVAAPSLNATTVVTTVYQEPIMSQGAALSGEPTTLTKEEEKKQPDEEPMDMVVEKQEETDHKNDNQILSEIVEAKMAEELKPMDTDKESIAESKSPEMSMQEDCISDIAPMQTDEQTNKEQFVPGPNEKPLYTAEPVTLEDLQLLADLFYLPYEHGPKGAQMLREFQWLRANSSVVSVNCKGKDSEKIEEWRSRAAKFEEMCGLVMGMFTRLSNCANRTILYDMYSYVWDIKSIMSMVKSFVQWLGCRSHSSAQFLIGDQEPWAFRGGLAGEFQRLLPIDGANDLFFQPPPLTPTSKVYTIRPYFPKDEASVYKICREMYDDGVGLPFQSQPDLIGDKLVGGLLSLSLDYCFVLEDEDGICGYALGTVDVTPFIKKCKISWIPFMQEKYTKPNGDKELSEAEKIMLSFHEEQEVLPETFLANFPSLIKMDIHKKVTDPSVAKSMMACLLSSLKANGSRGAFCEVRPDDKRILEFYSKLGCFEIAKMEGFPKDVVILGRSL [MGEA5]”, for which, in the series with HeLa Kyoto [1], the “solubility in G1/S (log2)” value was -0.0358. Besides, the melting temperature in the series with HeLa Kyoto [2] (cell cycle stage: G1/S) amounted to 52.8 °C; in the series on HeLa Kyoto [2] (cell cycle stage: mitosis) it was 52.4 °C. The “solubility change mitosis (log2)” value with HeLa Kyoto [3] is -0.112. The thermal stability score in the series on HeLa Kyoto [4] (setting [5]) was -1.09; in the series on HeLa Kyoto [4] (cell cycle stage: mitosis), -0.671.

Turning to “MVRGRISRLSVRDVRFPTSLGGHGADAMHTDPDYSAAYVVIETDAEDGIKGCGITFTLGKGTEVVVCAVNALAHHVLNKDLKDIVGDFRGFYRQLTSDGQLRWIGPEKGVVHLATAAVLNAVWDLWAKQEGKPVWKLLVDMDPRMLVSCIDFRYITDVLTEEDALEILQKGQIGKKEREKQMLAQGYPAYTTSCAWLGYSDDTLKQLCAQALKDGWTRFKVKVGADLQDDMRRCQIIRDMIGPEKTLMMDANQRWDVPEAVEWMSKLAKFKPLWIEEPTSPDDILGHATISKALVPLGIGIATGEQCHNRVIFKQLLQAKALQFLQIDSCRLGSVNENLSVLLMAKKFEIPVCPHAGGVGLCELVQHLIIFDYISVSASLENRVCEYVDHLHEHFKYPVMIQRASYMPPKDPGYSTEMKEESVKKHQYPDGEVWKKLLPAQEN [ENOSF1]”, in the series with HeLa Kyoto [1], the “solubility in G1/S (log2)” value turned out to be 0.0883. Further, the melting temperature came to 54.7 °C in the series with HeLa Kyoto [2] (cell cycle stage: G1/S) and 55.1 °C with HeLa Kyoto [2] (cell cycle stage: mitosis). Also, in the series on HeLa Kyoto [3], the “solubility change mitosis (log2)” value is -0.108. Moreover, the thermal stability score is -0.19 in the series with HeLa Kyoto [4] (setting [5]) and -1.12 in the series on HeLa Kyoto [4] (cell cycle stage: mitosis).

For “MVRKPVVSTISKGGYLQGNVNGRLPSLGNKEPPGQEKVQLKRKVTLLRGVSIIIGTIIGAGIFISPKGVLQNTGSVGMSLTIWTVCGVLSLFGALSYAELGTTIKKSGGHYTYILEVFGPLPAFVRVWVELLIIRPAATAVISLAFGRYILEPFFIQCEIPELAIKLITAVGITVVMVLNSMSVSWSARIQIFLTFCKLTAILIIIVPGVMQLIKGQTQNFKDAFSGRDSSITRLPLAFYYGMYAYAGWFYLNFVTEEVENPEKTIPLAICISMAIVTIGYVLTNVAYFTTINAEELLLSNAVAVTFSERLLGNFSLAVPIFVALSCFGSMNGGVFAVSRLFYVASREGHLPEILSMIHVRKHTPLPAVIVLHPLTMIMLFSGDLDSLLNFLSFARWLFIGLAVAGLIYLRYKCPDMHRPFKVPLFIPALFSFTCLFMVALSLYSDPFSTGIGFVITLTGVPAYYLFIIWDKKPRWFRIMSEKITRTLQIILEVVPEEDKL [SLC7A11]”, the “solubility in G1/S (log2)” value with HeLa Kyoto [1] was -0.0116. In addition, the melting temperature in the series with HeLa Kyoto [2] (cell cycle stage: mitosis) was found to be 57.5 °C. The “solubility change mitosis (log2)” value with HeLa Kyoto [3] was -0.169. Further, the thermal stability score was determined as 0.372 with HeLa Kyoto [4] (setting [5]) and 0.123 in the series on HeLa Kyoto [4] (cell cycle stage: mitosis).

In the case of “MVRPVRHKKPVNYSQFDHSDSDDDFVSATVPLNKKSRTAPKELKQDKPKPNLNNLRKEEIPVQEKTPKKRLPEGTFSIPASAVPCTKMALDDKLYQRDLEVALALSVKELPTVTTNVQNSQDKSIEKHGSSKIETMNKSPHISNCSVASDYLDLDKITVEDDVGGVQGKRKAASKAAAQQRKILLEGSDGDSANDTEPDFAPGEDSEDDSDFCESEDNDEDFSMRKSKVKEIKKKEVKVKSPVEKKEKKSKSKCNALVTSVDSAPAAVKSESQSLPKKVSLSSDTTRKPLEIRSPSAESKKPKWVPPAASGGSRSSSSPLVVVSVKSPNQSLRLGLSRLARVKPLHPNATST [RAD51AP1]”, in the series with HeLa Kyoto [1], the “solubility in G1/S (log2)” value came to 0.0638. The melting temperature in the series on HeLa Kyoto [2] (cell cycle stage: G1/S) came out at 53.8 °C; in the series on HeLa Kyoto [2] (cell cycle stage: mitosis) it was 58 °C. For the same sequence, the “solubility change mitosis (log2)” value with HeLa Kyoto [3] amounted to 0.203. The thermal stability score stood at 1.26 in the series with HeLa Kyoto [4] (setting [5]) and 7.25 with HeLa Kyoto [4] (cell cycle stage: mitosis).

For the sequence “MVSHSELRKLFYSADAVCFDVDSTVIREEGIDELAKICGVEDAVSEMTRRAMGGAVPFKAALTERLALIQPSREQVQRLIAEQPPHLTPGIRELVSRLQERNVQVFLISGGFRSIVEHVASKLNIPATNVFANRLKFYFNGEYAGFDETQPTAESGGKGKVIKLLKEKFHFKKIIMIGDGATDMEACPPADAFIGFGGNVIRQQVKDNAKWYITDFVELLGELEE [PSPH]”, the “solubility in G1/S (log2)” value in the series on HeLa Kyoto [1] turned out to be 0.258. In addition, the melting temperature came to 56.6 °C in the series with HeLa Kyoto [2] (cell cycle stage: G1/S) and 58.2 °C with HeLa Kyoto [2] (cell cycle stage: mitosis). The “solubility change mitosis (log2)” value in the series on HeLa Kyoto [3] was -0.049. The thermal stability score was -0.555 in the series on HeLa Kyoto [4] (setting [5]) and -0.969 with HeLa Kyoto [4] (cell cycle stage: mitosis).
